{"source": "the nanobody polyreactivity screen of Harvey et al. (2022)", "data": [{"assay": "yeast display, Sf9 membrane polyspecificity reagent, FACS + sequencing; frameworks hold sequencing errors", "in_short": "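Sorting gates, low and high (top ~1%), were placed on anti-HA fluorescence to track expression and on streptavidin fluorescence to track reagent binding. A clone's polyreactivity label is taken from the gate it came out of. The reagent was 10% biotinylated, detergent-solubilized Sf9 membrane, applied for 1 hour at 4 °C to galactose-induced yeast display cells.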", "values": [{"sequence": "QVQLVESGGGLVQAGGSLRLSCAASGFIFKRYAMGWYRQAPGKERELVAAITSSGGRTYYADSVKGRFTISRDNAKNTVYLQMISLKPEDTAVYYCAKGWSTYYTKMNYWGQGTQVTVSS", "polyreactivity (PSR sort gate)": "low polyreactivity"}, {"sequence": "QVQLVESGGGLVQAGGSLRLSCAASGFIFKSYAMGWYRQAPGKERELVAAITRGDNTNYADSVKGRFTISRDNAKNTFYLQMNSLKPEDTAVYYCAADRYTVRMDYWGQGTQVTVSS", "polyreactivity (PSR sort gate)": "high polyreactivity"}, {"sequence": "QVQLVESGGGLVQAGGSLRLSCAASGFIFKTYAMGWYRQAPGKERELVAAITGTGTSTYYADSVKGRFTISRDNAKNTVYLQMNSLKTEDTAVYYCAAEFGGRSYYPRHEYWGQGTQVTVSS", "polyreactivity (PSR sort gate)": "low polyreactivity"}, {"sequence": "QVQLVESGGGLVQAGGSLRLSCAASGFIFKYNAMGWYRQAPGKERELVAAITSSGGSTYYADSVKGRFTISRDNAKNTVYLQMNSLKPEDTAVYYCNRVRDPSYDYWGQGTQVTVSS", "polyreactivity (PSR sort gate)": "high polyreactivity"}, {"sequence": "QVQLVESGGGLVQAGGSLRLSCAASGFIFKYYAMGWYRQAPGKERELVAAISRSGGSTYYADSVKGRFTISRDNAKNTVYLLMNSLKPEDTAVYYCAADSSWVHEYYYWGQGTQVTVSS", "polyreactivity (PSR sort gate)": "high polyreactivity"}, {"sequence": "QVQLVESGGGLVQAGGSLRLSCAASGFIFKYYAMGWYRQAPGKERELVATITRRGGSTYYADSVKGRFTISRDNAKNTVYLQMNSLKPEDTAVYYCNVTPDWNARRPFDYWGQGTKVTVSS", "polyreactivity (PSR sort gate)": "high polyreactivity"}, {"sequence": "QVQLVESGGGLVQAGGSLRLSCAASGFIFLIYAMGWYRQAPGKERELVATIRYSGGRTYYADSVKGRFTISRDNAKNTVYLQMNSLKPEDTAVYYCAARSVWFSGQGRMNYWGQGTQVTVSS", "polyreactivity (PSR sort gate)": "high polyreactivity"}, {"sequence": "QVQLVESGGGLVQAGGSLRLSCAASGFIFLRYAMGWYRQAPGKERELVAAISSSGGRTTYADSVKGRFTISRDNAKNTLYLQMNSLKPEDTAVYYCNADLWPGNHDGYWGQGTQVTVSS", "polyreactivity (PSR sort gate)": "low polyreactivity"}, {"sequence": "QVQLVESGGGLVQAGGSLRLSCAASGFIFLRYGMGWYRPAPGKERELVASIDSTGGSTYADSVKGRFTISRDNAKNTVYLQMNSLKPEDTAVDYCAAAYYIVSERDYWGQGTQVTVSS", "polyreactivity (PSR sort gate)": "low polyreactivity"}, {"sequence": "QVQLVESGGGLVQAGGSLRLSCAASGFIFLSYAKGWYRQAPGKERELVATITWSGGRTYYADSVKGRFTISRDNAKNTVYLQMNSLKPEDTAVYYCAKVNTYYNIYVTFDYWGQGTQVTVSS", "polyreactivity (PSR sort gate)": "low polyreactivity"}, {"sequence": "QVQLVESGGGLVQAGGSLRLSCAASGFIFLYYAMGWYRQAPGKERELVAVITRGGRTYYADSVKGRFTISRDNAKNTVYLQMNSLKPEDTAVYYCAAKAYSYFARIGFDYWGQGTQVTVSS", "polyreactivity (PSR sort gate)": "high polyreactivity"}, {"sequence": "QVQLVESGGGLVQAGGSLRLSCAASGFIFLYYAMGWYRQAPGKERELVPYISRGADTKYADSVKGRFTISRDNAKNTVYLQMNSLKPEDTAVYYCATDITTFWFPYPGVELGYWGQGTQVTVAS", "polyreactivity (PSR sort gate)": "low polyreactivity"}, {"sequence": "QVQLVESGGGLVQAGGSLRLSCAASGFIFNDYAMGWYRQAPGKERELVAAISRSGGSTYYADSVKGRFTISRDNAKNTVYLQMNSLKAEDTAVYYCAADGLSGYRYYYWGQGTQVTVSS", "polyreactivity (PSR sort gate)": "high polyreactivity"}, {"sequence": "QVQLVESGGGLVQAGGSLRLSCAASGFIFNLYAMGWYRQAPGKERELVAAISSGGGTSYADSVKGRFTISRDNAKNTDYLQMNSLKPEDTAVYYCAKRSGTYPFNFRFDYWGQGTQVTVSS", "polyreactivity (PSR sort gate)": "high polyreactivity"}, {"sequence": "QVQLVESGGGLVQAGGSLRLSCAASGFIFNYYVMGGYRQAPGKERELVATISWRGGRTYYADSVKGRFTISRDNAKNTVYLQMNSLKPEDTAVYYCAADSFYYRPEYDYWGQGTQVTVSS", "polyreactivity (PSR sort gate)": "low polyreactivity"}, {"sequence": "QVQLVESGGGLVQAGGSLRLSCAASGFIFPANAMGWSRQAPGKEREFVAAISRSGGTTYYADSVKGRFTISRDHAKNTVYLQMNSLKPEDTAVYYCAARYAIGPGYDYWGQGTQVTVSS", "polyreactivity (PSR sort gate)": "high polyreactivity"}, {"sequence": "QVQLVESGGGLVQAGGSLRLSCAASGFIFPAYVMGWYRQAPGKERELVAAISRRGGSTYYADSVKGRFTISRDNAKNTVYLQMNRLKPEDTSVYYCAAVFKAGSAYDYWGQGTQVTVSS", "polyreactivity (PSR sort gate)": "high polyreactivity"}]}]}
